This note sets out measurements from patent US20250382359A1 (BYOMASS, published 2025).

One test deals with T1, Human BMP9 (human, UniProt Q9UK05 320-429).
T1 sequence (looked up): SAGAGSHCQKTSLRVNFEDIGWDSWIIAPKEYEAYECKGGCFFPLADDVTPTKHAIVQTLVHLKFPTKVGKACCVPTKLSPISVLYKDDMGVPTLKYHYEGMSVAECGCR
Put plainly: BLI Octet; IgG on sensor. On the technique in general: Biolayer interferometry detects binding as a change in optical thickness at a sensor tip.

A further test concerns the target T2, GDF10 (UniProt P55107 369-478).
T2 sequence (looked up): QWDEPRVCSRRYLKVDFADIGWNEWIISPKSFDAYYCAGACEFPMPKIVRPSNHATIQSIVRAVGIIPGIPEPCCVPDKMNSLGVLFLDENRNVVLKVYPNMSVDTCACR
Put plainly: BLI Octet; IgG on sensor.

In the next test the target is T3, Human BMP10 (human, UniProt O95393 317-424).
T3 sequence (looked up): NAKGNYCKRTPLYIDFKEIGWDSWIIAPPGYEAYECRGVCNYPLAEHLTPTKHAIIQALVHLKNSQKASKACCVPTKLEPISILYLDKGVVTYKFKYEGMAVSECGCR
Nature of the test: BLI Octet; IgG on sensor.

A further test has as its target T4, Human Activin B (human, UniProt P09529 293-407).
T4 sequence (looked up): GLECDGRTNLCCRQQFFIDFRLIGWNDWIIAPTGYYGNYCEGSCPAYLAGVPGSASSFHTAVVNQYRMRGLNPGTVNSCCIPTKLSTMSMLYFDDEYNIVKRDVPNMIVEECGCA
Nature of the test: BLI Octet; IgG on sensor.

A further test concerns the target T5, GDNF (UniProt P39905 78-211).
T5 sequence (looked up): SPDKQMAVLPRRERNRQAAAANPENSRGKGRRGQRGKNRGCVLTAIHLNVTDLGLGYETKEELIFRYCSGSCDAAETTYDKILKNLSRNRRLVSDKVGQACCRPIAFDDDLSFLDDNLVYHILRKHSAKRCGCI
Put plainly: BLI Octet; IgG on sensor.

The next test has as its target T6, GDF11 (UniProt O95390 299-407).
T6 construct: Also used as ligand in the Activin 2B receptor/SMAD reporter assay
Nature of the test: BLI Octet; IgG on sensor.

The target of a further test is GDF8 (UniProt O14793 267-375). Put plainly: BLI Octet; IgG on sensor.
The target in the next test is T7, Human Activin A Fc (human, UniProt P08476 311-426).
T7 construct: not shown: Fc part
T7 sequence (looked up): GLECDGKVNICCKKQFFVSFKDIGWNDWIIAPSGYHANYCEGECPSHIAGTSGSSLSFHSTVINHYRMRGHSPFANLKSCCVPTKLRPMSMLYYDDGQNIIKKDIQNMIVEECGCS
Nature of the test: BLI Octet; IgG on sensor.

Another test deals with T8, Human GDF15 Fc (human, UniProt Q99988 195-308, limits assumed, biotinylated (EZ-Link Sulfo-NHS-Biotinylation Kit) in the SPR assay).
T8 construct: also called human GDF15-Fc fusion; biotinylated Human GDF15 Fc; not shown: Fc part
T8 sequence: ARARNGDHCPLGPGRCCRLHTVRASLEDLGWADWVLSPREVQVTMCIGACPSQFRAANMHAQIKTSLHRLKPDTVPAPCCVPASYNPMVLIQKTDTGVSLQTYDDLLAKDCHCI
Put plainly: BLI Octet; IgG on sensor, 100 nM antigen (avid). As to the method:
Briefly, ForteBio affinity measurements were performed by loading IgGs on-line onto AHC sensors. Sensors were equilibrated off-line in assay buffer for 30 min and then monitored on-line for 60 seconds for baseline establishment. Sensors with loaded IgGs were exposed to 100 nM antigen for 3 minutes, and afterwards were transferred to assay buffer for 3 min for off-rate measurement. All kinetics were analyzed using the 1:1 binding model.

In test [1] the target is T9, GDF15 (ligand used in the GFRAL/RET cell assays) (UniProt Q99988 197-308, limits assumed).
T9 sequence (looked up): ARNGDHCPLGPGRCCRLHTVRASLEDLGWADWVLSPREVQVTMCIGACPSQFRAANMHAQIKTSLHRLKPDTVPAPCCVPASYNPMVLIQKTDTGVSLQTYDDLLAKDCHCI
Put plainly: cell-based or functional assay.

T6 sequence (O95390 299-407 limits assumed): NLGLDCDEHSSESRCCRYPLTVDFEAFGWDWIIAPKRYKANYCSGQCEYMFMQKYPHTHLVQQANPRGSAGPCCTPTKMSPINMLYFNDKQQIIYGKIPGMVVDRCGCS

B1: GDF15 antibody agent Clone E, IgG (antibody, V domains shown)
VH: QVQLVQSGAEVKKPGASVKVSCKASGYTFTSYGINWVRQAPGQGLEWMGWITAYSGDTNYAQKLQGRVTMTTDTSTSTAYMELRSLRSDDTAVYYCARGPGQYADVDVWGQGTMVTVSS
VL: DIQMTQSPSSVSASVGDRVTITCRASQGISSWLAWYQQKPGKAPKLLIYAASSLQSGVPSRFSGSGSGTDFTLTISSLQPEDFATYYCQQANSFPITFGGGTKVEIKR
For B1, the binding result with Human BMP9, with GDF10, with Human BMP10, with Human Activin B, with GDNF and with GDF11 was “no binding (tested: 100 nM)” throughout. For the same molecule, the binding result in the test with GDF8 and in the test with Human Activin A Fc was “no binding (tested: 100 nM)” throughout. For the same molecule, in the test with Human GDF15 Fc, the Kd (in general, the free concentration of one partner at which half of the binding sites on the other are occupied at equilibrium, for simple one-to-one binding) is 278 pM. In addition, in test [1], the “GDF15-GFRAL RET pERK IC50 (pM)” value is 35 pM. Besides, the “GDF15-GFRAL-RET Luciferase IC50 (pM)” value in test [1] was 190 pM.

B2: GDF15 antibody agent Clone O, IgG (antibody, V domains shown)
VH: QVQLVQSGAEVKKPGATVKVSCKASGYTFDSLGMSWVRQAPGQGLEWMGYISTYSGDTVYAQKLQGRVTMTTDTSTSTAYMELRSLRSDDTAVYYCARESGQQVSALDPWGQGTLVTVSS
VL: DIQMTQSPSSVSASVGDRVTITCRASQGISRWLAWYQQKPGKAPKLLIYAASSLQSGVPSRFSGSGSGTDFTLTISSLQPEDFATYYCQQGASFPLTFGGGTKVEIKR
As for B2, the binding result in the test with Human BMP9, with Human BMP10, with Human Activin B, with GDNF, in the test with GDF11 and with GDF8 was “no binding (tested: 100 nM)” throughout. Besides, the binding result with Human Activin A Fc is recorded as “no binding (tested: 100 nM)”. Also, in the test with Human GDF15 Fc, the Kd is 279 pM. In test [1], the “GDF15-GFRAL-RET Luciferase IC50 (pM)” value came out at 150 pM.

B3: GDF15 antibody agent Clone S, IgG (antibody, V domains shown)
VH: QVQLVQSGAEVKKPGASVKVSCKASGYTFTSYGINWVRQAPGQGLEWMGWITAYSGDTNYAQKLQGRVTMTTDTSTSTAYMELRSLRSDDTAVYYCARGPGQYADVDVWGQGTMVTVSS
VL: DIQLTQSPSSVSASVGDRVTITCRASQGISPWLAWYQQKPGKAPKLLIYAASSLQSGVPSRFSGSGSGTDFTLTISSLQPEDFATYYCQQANSFPITFGGGTKVEIKR
On to B3, for which the binding result with Human BMP9, with GDF10, with Human BMP10, with Human Activin B, with GDNF and in the test with GDF11 was “no binding (tested: 100 nM)” in each case. For the same molecule, the binding result in the test with GDF8 and with Human Activin A Fc was “no binding (tested: 100 nM)” in each case.

B4: GDF15 antibody agent Clone P, IgG (antibody, V domains shown)
VH: QVQLVQSGAEVKKPGATVKVSCKASGYTFDSYGIHWVRQAPGQGLEWMGWITAYSGDTVYAQKLQGRVTMTTDTSTSTAYMELRSLRSDDTAVYYCARESGQTSSALGPWGQGTLVTVSS
VL: DIQMTQSPSSVSASVGDRVTITCRASQGISRWLAWYQQKPGKAPKLLIYAASSLQSGVPSRFSGSGSGTDFTLTISSLQPEDFATYYCQQGASFPLTFGGGTKVEIKR
As for B4, the binding result in the test with Human BMP9, in the test with GDF10, in the test with Human BMP10, with Human Activin B, with GDF11 and with GDF8 was “no binding (tested: 100 nM)” throughout. In addition, the binding result in the test with Human Activin A Fc was “no binding (tested: 100 nM)”. This molecule registered a Kd with Human GDF15 Fc of 274 pM. Moreover, in test [1], the “GDF15-GFRAL RET pERK IC50 (pM)” value was 35.6 pM.

B5: GDF15 antibody agent Clone T, IgG (antibody, V domains shown)
VH: QVQLVQSGAEVKKPGASVKVSCKASGYTFTSYGINWVRQAPGQGLEWMGWITAYSGDTNYAQKLQGRVTMTTDTSTSTAYMELRSLRSDDTAVYYCARGPGQYADVDVWGQGTMVTVSS
VL: DIQMTQSPSSVSASVGDRVTITCRASQGISSWLAWYQQKPGKAPKLLIYAASSLQSGVPSRFSGSGSGTDFTLTISSLQPEDFATYYCQQASQFPITFGGGTKVEIKR
For B5, the binding result in the test with Human BMP9, in the test with GDF10, in the test with Human BMP10, with Human Activin B, with GDNF and in the test with GDF11 was “no binding (tested: 100 nM)” in each case. Also, the binding result with GDF8 and with Human Activin A Fc was “no binding (tested: 100 nM)” in each case.

B6: GDF15 antibody agent Clone H, IgG (antibody, V domains shown)
VH: QVQLVQSGAEVKKPGSSVKVSCKASGGTFSSYYISWVRQAPGQGLEWMGGIAPISGTASYAQKFQGRVTITADESTSTAYMELSSLRSEDTAVYYCARGLAYDGYFDLWGRGTLVTVSS
VL: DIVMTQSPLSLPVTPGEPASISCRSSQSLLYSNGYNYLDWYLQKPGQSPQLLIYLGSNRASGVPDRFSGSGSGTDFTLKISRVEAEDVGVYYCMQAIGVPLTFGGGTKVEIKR
For the molecule B6, the binding result with Human BMP9, with GDF10, in the test with Human BMP10, with Human Activin B, with GDNF and with GDF11 was “no binding (tested: 100 nM)” each time. Moreover, the binding result in the test with GDF8 and with Human Activin A Fc was “no binding (tested: 100 nM)” in each case. This molecule also gave a Kd in the test with Human GDF15 Fc of 235 pM. Also, in [1], the “GDF15-GFRAL RET pERK IC50 (pM)” value is 254 pM. Further, the “GDF15-GFRAL-RET Luciferase IC50 (pM)” value in test [1] came out at 200 pM.
